From article PMC9482650, “Quantitative fragmentomics allow affinity mapping of interactomes” (Nature Communications, 2022)

T1: APBA1_2, Q02410
T1 sequence (Q02410 742-832, limits assumed, looked up): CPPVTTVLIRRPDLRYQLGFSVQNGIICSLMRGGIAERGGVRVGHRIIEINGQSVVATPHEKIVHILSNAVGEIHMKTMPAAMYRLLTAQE


Target: T1, APBA1_2, Q02410
Assay: holdup assay
Set-up: key: below the threshold = too weak to quantify, mostly under pKd 3.1 to 4
[1] = plain residues with an end cap or a label only (N-terminal biotin on a linker: ado-ado)

| Binder | pKd [1] | pKd (modified: phospho on T at position -2 from the C-terminal residue) |
| --- | --- | --- |
| PAALPESTHM [SLC9A3, P48764] | below the threshold |  |
| SKQFDKNAYV [CLDN10, P78369] | 3.73 |  |
| VYEVPVETKF [SLC26A3, P40879] | 3.58 |  |
| PSDSVGKDVF [EGLN1, Q9GZT9] | below the threshold |  |
| THREVKFTSL [CD46, P15529] | 3.64 |  |
| QKNKDREYYV [NRXN3, Q9HDB5] | 3.99 |  |
| KAEEKPPSKV [SCN4B, Q8IWT1] | 3.85 |  |
| NTALVESEDL [PALLS, Q8WX93;Q8WX93-1] | below the threshold |  |
| HDDYFYHDEL [RCN2, Q14257] | 3.98 |  |
| KKTPVSRSHL [SLC22A3, O75751] | 3.77 |  |
| LPPPESESKV [KCNJ9, Q92806] | below the threshold |  |
| NNMAFETTHF [SLC5A12, Q1EHB4] | 3.62 |  |
| SSSVNVSSNL [CXCR1, P25024] | below the threshold |  |
| LLQEEWETVM [PTH1R, Q03431] | below the threshold |  |
| HLSTRQGTCV [ATRNL1, Q5VV63] | 4.62 |  |
| HYPASPDSWV [CTNND2, Q9UQB3] | 4.5 |  |
| VCMGDHWFDV [PRKN, O60260] | 3.92 |  |
| QRYPGNQTTC [CCL24, O00175] | below the threshold |  |
| KLQNPNQSVV [TYRP1, P17643] | 3.56 |  |
| PKSNSSKEYV [CLDN7, O95471] | 3.69 |  |
| SQPLLVHDDV [KIT, P10721] | 3.54 |  |
| EFKQTSSFLV [JAM1, Q9Y624] | 3.5 |  |
| DFKHTKSFII [JAM2, P57087] | below the threshold |  |
| GNDPDRGTSI [GRID2, O43424] | 3.65 |  |
| SGDGKTSVWI [GJC1, P36383] | 4.44 |  |

| Binder | pKd [1] | pKd (modified: phospho on T at position -2 from the C-terminal residue) |
| --- | --- | --- |
| EPAKETTTNV [SLC2A3, P11169] | 3.84 |  |
| PGKKPEDSRV [SLCO2B1, O94956] | below the threshold |  |
| MLPANYVEAI [NEB, P20929] | below the threshold |  |
| TKDKVQETQI [LRRC4, Q9HBW1] | 3.55 |  |
| ADEMICITTL [CACNA1D, Q01668] | 4.01 |  |
| LVEEEEPMNL [HDAC7, Q8WUI4] | below the threshold |  |
| NISARRFTLC [FAM167B, Q9BTA0] | below the threshold |  |
| RSPVATATSC [DUSP5, Q16690] | below the threshold |  |
| PLPPEEESWV [GAS2L2, Q8NHY3] | 5.02 |  |
| STYCDYTIEI [FAM71C, Q8NEG0] | below the threshold |  |
| MQILSKPEFI [NPSR1, Q6W5P4] | 4.24 |  |
| KIEDVEITLV [FCHSD2, O94868] | 4.07 |  |
| KEKASTETEC [TRPM1, Q7Z4N2] | below the threshold |  |
| QKASRNESTF [POLR1D, P0DPB6] | below the threshold |  |
| RDYTQSSSSL [GRM5, P41594] | below the threshold |  |
| DSEEELPTRL [GRK6, P43250] | 4.16 |  |
| KPDKQEEFYA [SDC3, O75056] | below the threshold |  |
| FVFESRKEIL [TBPL1, P62380] | below the threshold |  |
| PLATCDETSI [SEMA4F, O95754] | below the threshold |  |
| GTMFLRETSL [GUCY1A2, P33402] | 3.61 |  |
| IKLETKKTKL [SLC15A2, Q16348] | 3.67 |  |
| GQNMTVSVVI [PRLHR, P49683] | 3.87 |  |
| NSTHNLKDYV [CLDN20, P56880] | 3.69 |  |
| DLLGGGSDSI [TNRC6B, Q9UPQ9] | below the threshold |  |
| TKEIPNCTSV [SORCS3, Q9UPU3] | 4.64 |  |

| Binder | pKd [1] | pKd (modified: phospho on T at position -2 from the C-terminal residue) |
| --- | --- | --- |
| QLKSGRDSTV [TMEM178A, Q8NBL3] | 3.63 |  |
| SRSRRRETAL [HPV33-E6_-2P, P06427] |  | below the threshold |
| DYSNLRETDI [ADRA1D, P25100] | below the threshold |  |
| SAGADSETHC [SLCO1B1, Q9Y6L6] | below the threshold |  |
| GVHSNDHSVV [LPAR1, Q92633] | 3.63 |  |
| WAKEKQHTRL [SLC17A1, Q14916] | below the threshold |  |
| YAEKRMLTEV [KCNA6, P17658] | 3.72 |  |
| PALKNGQYWV [CSPG4, Q6UVK1] | 4.67 |  |
| FLVTEFNVML [DFNB31, Q9P202] | 3.84 |  |
| AHGSTRDQSI [KCNB1, Q14721] | below the threshold |  |
| PEKVSNTTVV [IGSF5, Q9NSI5] | 3.51 |  |
| EAVTVESTSL [SLC22A11, Q9NSA0] | 3.86 |  |
| QQGLLPHSSC [TYRO3, Q06418] | below the threshold |  |
| KSRPENGTVC [TMEM178B, H3BS89] | below the threshold |  |
| IQISELETNV [SLC1A7, O00341] | 3.83 |  |
| TNSKQGETTV [FZD1, Q9UP38] | 3.74 |  |
| TFSRRPKTRV [CD226, Q15762] | 3.48 |  |
| AKADAQESRL [PLCB2, Q00722] | below the threshold |  |
| THHRKIHTRV [ZNF599, Q96NL3] | 3.62 |  |
| VISSDDLTEL [CAPN6, Q9Y6Q1] | 3.79 |  |
| RGKNRRQSIF [CDK18, Q07002] | 3.47 |  |
| NKSEPFLTWL [WWTR1, Q9GZV5] | 4.89 |  |
| QLGSPTADLA [SIPA1, Q96FS4] | below the threshold |  |
| PSVYSRSQYV [CLDN8, P56748] | 3.92 |  |
